Reference: patent US7090834B1, “Vascular endothelial cell growth factor variants and uses thereof” (Genentech, Inc., priority 1999, dated 2006)
Residue numbers refer to the chain shown, from its start. Names and notes keep the numbering of the source.

B1: LK-VRB-19s (ligand, human, UniProt P15692-4 27-135, looked up)
chain: APMAEGGGQNHHEVVKFEDVYRRSSCHPIETLVDIFQEYPDEIEYIFKPSCVPLMRCGGCCNSEMRECVPTEESNITMQIMRIKPHQGQHIGEMSFLQHNKCECRPKKD
notes: one of the two is probably misprinted
B2: LK-VRB-10s (ligand, human, UniProt P15692-4 27-135, looked up)
chain: B1 chain with E18M, R22Q
B3: LK-VRB-11s (ligand, human, UniProt P15692-4 27-135, looked up)
chain: B1 chain with Y21L, R22Q, S25Y
B4: LK-VRB-12s (ligand, human, UniProt P15692-4 27-135, looked up)
chain: B1 chain with S25Y
B5: LK-VRB-13s (ligand, human, UniProt P15692-4 27-135, looked up)
chain: B1 chain with R22Q
B6: LK-VRB-14s (ligand, human, UniProt P15692-4 27-135, looked up)
chain: B1 chain with E18M, Y21L, S25Y
B7: LK-VRB-15s (ligand, human, UniProt P15692-4 27-135, looked up)
chain: B1 chain with E18M, Y21L, R22Q
B8: LK-VRB-16s (ligand, human, UniProt P15692-4 27-135, looked up)
chain: B1 chain with E18M
B9: LK-VRB-20s (ligand, human, UniProt P15692-4 27-135, looked up)
chain: B1 chain with E18M, Y21L
B10: LK-VRB-21s (ligand, human, UniProt P15692-4 27-135, looked up)
chain: B1 chain with Y21L, M65G, R66L
B11: LK-VRB-22s (ligand, human, UniProt P15692-4 27-135, looked up)
chain: B1 chain with Y21L, S63D, R66L
B12: LK-VRB-23s (ligand, human, UniProt P15692-4 27-135, looked up)
chain: B1 chain with Y21L, S63D, M65G
B13: LK-VRB-24s (ligand, human, UniProt P15692-4 27-135, looked up)
chain: B1 chain with Y21L, R66L
B14: LK-VRB-25s (ligand, human, UniProt P15692-4 27-135, looked up)
chain: B1 chain with Y21L, M65G
B15: LK-VRB-26s (ligand, human, UniProt P15692-4 27-135, looked up)
chain: B1 chain with Y21L, S63D
B16: LK-VRB-17s (ligand)
chain: B1 chain with Y21L, S25Y
B17: LK-VRB-18s (ligand)
chain: B1 chain with Y21L, R22Q
B18: LK-VRB-6s: VEGF (1–109) variant with D63S/G65A/L66T (protein)
chain: B1 chain with E18M, R22Q, S25Y, M65A, R66T
B19: LK-VRB-3s: VEGF (1–109) variant with F17I/M18E/Y21F/Q22K/Y25S (protein)
chain: B1 chain with F17I, Y21F, R22K, S63D, M65G, R66L
B20: LK-VRB-4s: VEGF (1–109) variant with F17I/M18E/Y21F/Q22E/Y25I (protein)
chain: B1 chain with F17I, Y21F, R22E, S25I, S63D, M65G, R66L
B21: LK-VRB-5s: VEGF (1–109) variant with D63S/L66R (protein)
chain: B1 chain with E18M, R22Q, S25Y, M65G
B22: LK-VRB-2s* (ligand, human, UniProt P15692-4 27-135, looked up)
chain: B1 chain with E18M, R22Q, S25Y
B23: LK-VRB-2f (ligand, human, UniProt P15692-4 27-191, looked up)
chain: APMAEGGGQNHHEVVKFMDVYQRSYCHPIETLVDIFQEYPDEIEYIFKPSCVPLMRCGGCCNSEMRECVPTEESNITMQIMRIKPHQGQHIGEMSFLQHNKCECRPKKDRARQENPCGPCSERRKHLFVQDPQTCKCSCKNTDSRCKARQLELNERTCRCDKPRR

Each molecule was assayed against T1, KDR (1-3) (UniProt P35968 20-327, limits assumed) (assay: competition ELISA vs biotinylated native VEGF (8-109) for KDR (1-3)). Settings: not given.
T1 construct: domain: domains 1 to 3; Genentech reagent; also called KDR (1-3) monomer; domains 1 to 3 of KDR
T1 sequence (P35968 20-327 limits assumed): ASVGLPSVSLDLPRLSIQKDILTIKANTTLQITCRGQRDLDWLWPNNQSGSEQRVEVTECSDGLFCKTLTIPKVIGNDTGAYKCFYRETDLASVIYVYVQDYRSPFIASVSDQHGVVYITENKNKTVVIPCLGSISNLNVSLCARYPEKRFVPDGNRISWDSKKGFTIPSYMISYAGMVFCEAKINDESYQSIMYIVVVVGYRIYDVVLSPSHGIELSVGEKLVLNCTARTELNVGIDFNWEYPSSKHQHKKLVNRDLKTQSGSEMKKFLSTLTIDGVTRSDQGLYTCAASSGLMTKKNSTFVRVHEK
Description: (§1) Receptor binding assays were performed in 96-well immunoplates (Maxisorp, Nunc-Immunoplate, Nalge Nunc International, Rochester, N.Y.). Each well was coated with 100 μl of a solution containing 8 μg/ml of a monoclonal antibody to KDR known as MAKD5 (Genentech, South San Francisco, Calif.) in 50 mM carbonate buffer at pH 9.6 and incubated at 4° C. overnight. The supernatant was discarded, the wells were washed three times in washing buffer (0.05% Tween 20 in PBS), and the plate was blocked (150 μl per well) with block buffer (0.5% BSA, 0.01% thimerosal in PBS) at room temperature for one hour. The supernatant was discarded, and the wells were washed.
(§2) Aliquots of this mixture (100 μl) were added to the precoated microtiter wells and the plate was incubated for 1 hour at room temperature. […] The wells were then incubated with 3, 3', 5,5'-tetramethyl benzidine (0.2 gram/liter; Kirkegaard & Perry Laboratories, Gaithersburg, Md.) for about 10 minutes at room temperature. Absorbance was read at 450 nm on a Vmax plate reader (Molecular Devices, Menlo Park, Calif.).
(§3) Titration curves were fit with a four-parameter nonlinear regression curve-fitting program (KaleidaGraph, Synergy Software, Reading, Pa.).
In the case of B1, the “relative binding affinity (ratio to native VEGF (8-109))” value is reported as 7 ratio.
B2 was tested, and the “relative binding affinity (ratio to native VEGF (8-109))” value was 0.5 ratio.
B3 was tested, and the “relative binding affinity (ratio to native VEGF (8-109))” value was 2 ratio.
B4 was tested, and the “relative binding affinity (ratio to native VEGF (8-109))” value was 0.4 ratio.
In the case of B5, the “relative binding affinity (ratio to native VEGF (8-109))” value is reported as 14 ratio.
In the case of B6, the “relative binding affinity (ratio to native VEGF (8-109))” value is reported as 0.5 ratio.
In the case of B7, the “relative binding affinity (ratio to native VEGF (8-109))” value is reported as 2 ratio.
For B8, the “relative binding affinity (ratio to native VEGF (8-109))” value was 0.6 ratio.
For B9, the “relative binding affinity (ratio to native VEGF (8-109))” value was 2 ratio.
B10 was tested, and the “relative binding affinity (ratio to native VEGF (8-109))” value was 3 ratio.
In the case of B11, the “relative binding affinity (ratio to native VEGF (8-109))” value is reported as 4 ratio.
In the case of B12, the “relative binding affinity (ratio to native VEGF (8-109))” value is reported as 11 ratio.
For B13, the “relative binding affinity (ratio to native VEGF (8-109))” value was 10 ratio.
For B14, the “relative binding affinity (ratio to native VEGF (8-109))” value was 4 ratio.
For B15, the “relative binding affinity (ratio to native VEGF (8-109))” value was 23 ratio.
For B16, the “relative binding affinity (ratio to native VEGF (8-109))” value was 130 ratio.
With B17 the IC50 was 130 nM and the “relative binding affinity (ratio to native VEGF (8-109))” value was 130 ratio.

Each molecule was assayed against KDR receptor (Homo sapiens, UniProt P35968) (assay: KDR receptor binding ELISA (inhibition of biotinylated native VEGF (8–109) binding)). Settings: second figure of the cell, variant midpoint concentration divided by that of native VEGF.
Chain of KDR receptor (P35968 20-327 limits assumed): as above
Description: as §1
as §2, with “3′, 5,5′-tetramethyl” for “3', 5,5'-tetramethyl”
as §3
With B1 the “Relative Binding Affinity, KDR Receptor: ratio to native VEGF (8–109)” value was 7 nM/7.
With B2 the “Relative Binding Affinity, KDR Receptor: ratio to native VEGF (8–109)” value was 0.5 nM/0.5.
B3 was tested, and the “Relative Binding Affinity, KDR Receptor: ratio to native VEGF (8–109)” value was 2 nM/2.
In the case of B4, the “Relative Binding Affinity, KDR Receptor: ratio to native VEGF (8–109)” value is reported as 0.4 nM/0.4.
For B5, the “Relative Binding Affinity, KDR Receptor: ratio to native VEGF (8–109)” value was 14 nM/14.
B6 was tested, and the “Relative Binding Affinity, KDR Receptor: ratio to native VEGF (8–109)” value was 0.5 nM/0.5.
For B7, the “Relative Binding Affinity, KDR Receptor: ratio to native VEGF (8–109)” value was 2 nM/2.
For B8, the “Relative Binding Affinity, KDR Receptor: ratio to native VEGF (8–109)” value was 0.6 nM/0.6.
In the case of B9, the “Relative Binding Affinity, KDR Receptor: ratio to native VEGF (8–109)” value is reported as 2 nM/2.
For B10, the “Relative Binding Affinity, KDR Receptor: ratio to native VEGF (8–109)” value was 3 nM/3.
With B11 the “Relative Binding Affinity, KDR Receptor: ratio to native VEGF (8–109)” value was 4 nM/4.
In the case of B12, the “Relative Binding Affinity, KDR Receptor: ratio to native VEGF (8–109)” value is reported as 11 nM/11.
B13 was tested, and the “Relative Binding Affinity, KDR Receptor: ratio to native VEGF (8–109)” value was 10 nM/10.
For B14, the “Relative Binding Affinity, KDR Receptor: ratio to native VEGF (8–109)” value was 4 nM/4.
For B15, the “Relative Binding Affinity, KDR Receptor: ratio to native VEGF (8–109)” value was 23 nM/23.
For B18, the “Relative Binding Affinity, KDR Receptor: ratio to native VEGF (8–109)” value was 0.5 nM/0.5.
B19 was tested, and the “Relative Binding Affinity, KDR Receptor: ratio to native VEGF (8–109)” value was 1 nM/1.
In the case of B20, the “Relative Binding Affinity, KDR Receptor: ratio to native VEGF (8–109)” value is reported as 1 nM/1.
With B21 the “Relative Binding Affinity, KDR Receptor: ratio to native VEGF (8–109)” value was 1 nM/1.

The molecules below were run against Flt-1 receptor (assay: Flt-1 receptor binding ELISA (inhibition of biotinylated native VEGF binding to Flt-IgG)). Settings: first figure of the cell, Flt-IgG, read-out: Relative Binding Affinity, FLT-1 Receptor: concentration at midpoint absorbance.
Chain of Flt-1 receptor (P17948 27-327 limits assumed): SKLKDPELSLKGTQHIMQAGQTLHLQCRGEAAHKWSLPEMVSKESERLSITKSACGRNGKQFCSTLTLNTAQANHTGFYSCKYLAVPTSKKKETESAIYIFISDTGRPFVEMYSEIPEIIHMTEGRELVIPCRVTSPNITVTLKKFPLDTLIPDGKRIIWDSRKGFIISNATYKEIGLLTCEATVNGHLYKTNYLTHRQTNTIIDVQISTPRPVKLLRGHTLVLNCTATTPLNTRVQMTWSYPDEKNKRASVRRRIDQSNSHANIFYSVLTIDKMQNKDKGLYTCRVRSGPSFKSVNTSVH
Description: Receptor binding assays were performed in 96-well immunoplates (Maxisorp, Nunc-Immunoplate, Nalge Nunc International, Rochester, N.Y.). Each well was coated with 100 μl of a solution containing 2 μg/ml of rabbit F(ab′)2 to human IgG Fc (Jackson ImmunoResearch, West Grove, Pa.) in 50 mM carbonate buffer at pH 9.6 and incubated at 4° C. overnight. The supernatant was then discarded, the wells were washed three times in washing buffer (0.05% Tween 20 in PBS), and the plate was blocked (150 μl per well) with block buffer (0.5% BSA, 0.01% thimerosal in PBS) at room temperature for one hour. The supernatant was discarded, and the wells were washed.
The wells were filled with 100 μl of a solution containing Flt-IgG (a chimeric Flt-human Fc molecule) at 50 ng/ml in assay buffer (0.5% BSA, 0.05% Tween 20 in PBS). The wells were incubated at room temperature for 1 hour and then washed three times in wash buffer (0.05% Tween 20 in PBS).
as §2, with “the” for “this”, “2 hours” for “1 hour”, “3′, 5,5′-tetramethyl” for “3', 5,5'-tetramethyl”, “g/liter,” for “gram/liter;”
as §3
With “LK-VRB-2s*: VEGF (1–109) variant with D63S/G65M/L66R; KDR selective variant” the IC50 was over 400 nM.

Same assay, conditions: second figure of the cell, fold less binding than native VEGF
For B1, the “Relative Binding Affinity, FLT-1 Receptor: ratio to native VEGF (8–109)” value was “/>35000”.
With B2 the “Relative Binding Affinity, FLT-1 Receptor: ratio to native VEGF (8–109)” value was “/>2400”.
In the case of B3, the “Relative Binding Affinity, FLT-1 Receptor: ratio to native VEGF (8–109)” value is reported as “/>14000”.
For B4, the “Relative Binding Affinity, FLT-1 Receptor: ratio to native VEGF (8–109)” value was “/>5600”.
B5 was tested, and the “Relative Binding Affinity, FLT-1 Receptor: ratio to native VEGF (8–109)” value was “/>14000”.
With B6 the “Relative Binding Affinity, FLT-1 Receptor: ratio to native VEGF (8–109)” value was “/>2900”.
For B7, the “Relative Binding Affinity, FLT-1 Receptor: ratio to native VEGF (8–109)” value was “/>21000”.
B8 was tested, and the “Relative Binding Affinity, FLT-1 Receptor: ratio to native VEGF (8–109)” value was “/>1400”.
With B9 the “Relative Binding Affinity, FLT-1 Receptor: ratio to native VEGF (8–109)” value was “/>10000”.
With B10 the “Relative Binding Affinity, FLT-1 Receptor: ratio to native VEGF (8–109)” value was “/>5600”.
In the case of B11, the “Relative Binding Affinity, FLT-1 Receptor: ratio to native VEGF (8–109)” value is reported as “/>30”.
B12 was tested, and the “Relative Binding Affinity, FLT-1 Receptor: ratio to native VEGF (8–109)” value was “/>8500”.
In the case of B13, the “Relative Binding Affinity, FLT-1 Receptor: ratio to native VEGF (8–109)” value is reported as “/>18000”.
In the case of B14, the “Relative Binding Affinity, FLT-1 Receptor: ratio to native VEGF (8–109)” value is reported as “/>12000”.
B15 was tested, and the “Relative Binding Affinity, FLT-1 Receptor: ratio to native VEGF (8–109)” value was “/>25000”.
B16 was tested, and the “Relative Binding Affinity, FLT-1 Receptor: ratio to native VEGF (8–109)” value was “/>1900”.

What follows are molecules tested against KDR receptor on HUVEC cells (human, UniProt P35968 20-1356) (assay: cell-based or functional assay). Settings: not given.
Chain of KDR receptor on HUVEC cells (P35968 20-1356): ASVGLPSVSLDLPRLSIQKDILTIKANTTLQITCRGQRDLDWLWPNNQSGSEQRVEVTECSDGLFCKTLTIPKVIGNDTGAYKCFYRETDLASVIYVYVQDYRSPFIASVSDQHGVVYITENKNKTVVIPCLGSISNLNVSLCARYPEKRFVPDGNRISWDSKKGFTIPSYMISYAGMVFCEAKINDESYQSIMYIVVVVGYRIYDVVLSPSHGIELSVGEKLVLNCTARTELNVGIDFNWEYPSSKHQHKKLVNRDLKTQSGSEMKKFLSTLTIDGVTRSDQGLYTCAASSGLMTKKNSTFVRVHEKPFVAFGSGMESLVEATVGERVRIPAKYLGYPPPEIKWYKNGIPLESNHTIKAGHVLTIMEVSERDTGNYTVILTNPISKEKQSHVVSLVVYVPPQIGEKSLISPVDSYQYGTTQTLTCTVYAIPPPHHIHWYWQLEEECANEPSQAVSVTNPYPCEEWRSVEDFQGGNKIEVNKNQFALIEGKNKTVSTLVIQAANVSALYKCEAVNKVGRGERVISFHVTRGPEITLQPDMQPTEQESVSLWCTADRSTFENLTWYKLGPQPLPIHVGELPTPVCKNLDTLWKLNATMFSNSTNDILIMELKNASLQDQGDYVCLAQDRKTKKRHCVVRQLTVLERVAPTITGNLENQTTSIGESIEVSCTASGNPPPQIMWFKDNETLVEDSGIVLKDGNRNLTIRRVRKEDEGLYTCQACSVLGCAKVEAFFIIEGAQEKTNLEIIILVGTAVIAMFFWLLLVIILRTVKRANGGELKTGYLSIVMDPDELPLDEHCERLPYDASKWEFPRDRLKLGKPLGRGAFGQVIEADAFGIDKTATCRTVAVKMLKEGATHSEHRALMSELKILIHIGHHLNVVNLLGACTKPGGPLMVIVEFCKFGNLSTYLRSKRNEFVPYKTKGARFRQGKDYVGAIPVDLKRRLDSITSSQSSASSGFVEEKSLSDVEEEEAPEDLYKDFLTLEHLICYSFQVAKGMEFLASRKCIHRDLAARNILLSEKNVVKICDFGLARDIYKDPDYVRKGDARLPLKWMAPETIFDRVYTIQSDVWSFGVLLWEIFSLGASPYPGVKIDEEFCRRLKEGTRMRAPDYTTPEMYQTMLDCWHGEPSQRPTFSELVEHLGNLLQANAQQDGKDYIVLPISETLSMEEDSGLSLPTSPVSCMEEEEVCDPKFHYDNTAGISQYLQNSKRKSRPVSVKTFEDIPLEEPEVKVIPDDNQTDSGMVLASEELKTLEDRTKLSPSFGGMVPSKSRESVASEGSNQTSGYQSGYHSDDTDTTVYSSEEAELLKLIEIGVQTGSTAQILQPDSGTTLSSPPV
In the case of B22, the “Endothelial Cell Proliferation Activity (HUVEC, 3H-thymidine)” value is reported as 0.1 ratio to native VEGF (8-109).
With B23 the “Endothelial Cell Proliferation Activity (HUVEC, 3H-thymidine)” value was 0.1 ratio to native VEGF (8-109).
